In PMC11558545 (2024):
Several values for one entry are separate records, joined by “and”; a condition that tells them apart may be missing. Identical values can stand only once. Like-named read-outs stand apart in the source and are kept apart here. Square brackets hold non-standard residues; d marks the D form. Ends that are not written are not given here. pT = C[C@@H](OP(=O)(O)O)[C@H](N)C(=O)O; pS = N[C@@H](COP(=O)(O)O)C(=O)O

T1: At14-3-3 λ^N233A (Arabidopsis thaliana, UniProt P48349 1-248, N233A)
T1 sequence: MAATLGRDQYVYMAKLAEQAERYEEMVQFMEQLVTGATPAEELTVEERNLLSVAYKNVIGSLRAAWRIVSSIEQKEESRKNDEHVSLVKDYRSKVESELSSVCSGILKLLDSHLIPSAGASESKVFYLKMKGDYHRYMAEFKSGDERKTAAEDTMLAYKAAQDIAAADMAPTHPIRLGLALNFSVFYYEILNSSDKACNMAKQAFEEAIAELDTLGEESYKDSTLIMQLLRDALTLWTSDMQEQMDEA

T2: Arabidopsis 14-3-3 lambda (At14-3-3-λ^1−248) (Arabidopsis thaliana, UniProt P48349 1-248)
T2 chain: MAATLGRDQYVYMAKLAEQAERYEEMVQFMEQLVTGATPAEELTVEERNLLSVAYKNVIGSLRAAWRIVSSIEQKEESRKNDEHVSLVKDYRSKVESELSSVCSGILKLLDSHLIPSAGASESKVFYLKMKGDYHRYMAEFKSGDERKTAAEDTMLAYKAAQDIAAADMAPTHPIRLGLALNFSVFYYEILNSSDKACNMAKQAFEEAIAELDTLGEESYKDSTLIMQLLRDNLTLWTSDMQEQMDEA

T3: Arabidopsis 14-3-3 omega, full length (At14-3-3-ω^1−259) (Arabidopsis thaliana, UniProt Q01525 1-259)
T3 chain: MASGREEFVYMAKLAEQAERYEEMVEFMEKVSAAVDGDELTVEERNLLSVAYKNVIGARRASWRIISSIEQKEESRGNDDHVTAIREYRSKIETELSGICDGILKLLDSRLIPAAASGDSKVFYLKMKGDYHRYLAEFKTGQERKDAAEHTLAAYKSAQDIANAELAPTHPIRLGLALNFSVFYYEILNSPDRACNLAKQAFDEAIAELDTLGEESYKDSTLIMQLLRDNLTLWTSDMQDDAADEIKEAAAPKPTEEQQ

T4: Arabidopsis 14-3-3 isoform kappa (At14-3-3-κ^1−248) (Arabidopsis thaliana, UniProt P48348 1-248)
T4 chain: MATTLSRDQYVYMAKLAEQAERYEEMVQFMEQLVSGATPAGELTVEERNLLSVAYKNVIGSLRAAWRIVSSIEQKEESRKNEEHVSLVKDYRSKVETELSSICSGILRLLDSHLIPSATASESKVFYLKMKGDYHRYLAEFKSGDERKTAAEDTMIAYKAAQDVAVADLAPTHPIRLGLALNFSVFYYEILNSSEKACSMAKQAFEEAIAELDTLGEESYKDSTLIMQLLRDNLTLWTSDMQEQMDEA

T5: biotinylated 14-3-3 ω dimer (Arabidopsis thaliana, UniProt Q01525 1-259, biotin (EZ-Link NHS-Biotin, equimolar amounts of protein and biotin; sites not stated))
T5 chain: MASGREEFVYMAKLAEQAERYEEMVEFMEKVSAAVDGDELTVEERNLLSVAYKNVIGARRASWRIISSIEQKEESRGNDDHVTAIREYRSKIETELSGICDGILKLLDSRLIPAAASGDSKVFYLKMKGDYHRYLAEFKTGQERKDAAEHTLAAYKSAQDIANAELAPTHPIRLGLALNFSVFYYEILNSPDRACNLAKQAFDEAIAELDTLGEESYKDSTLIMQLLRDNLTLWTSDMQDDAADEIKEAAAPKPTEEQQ


Key:
At14-3-3 λ^N233A = biological target: T1, At14-3-3 λ^N233A; assay: ITC
[1] = biological target: T2, Arabidopsis 14-3-3 lambda …; assay: ITC
[2] = biological target: T3, Arabidopsis 14-3-3 omega, full length …; assay: ITC
[3] = biological target: T4, Arabidopsis 14-3-3 isoform kappa …; assay: ITC
[4] = biological target: T4, Arabidopsis 14-3-3 isoform kappa …; assay: ITC
[5] = biological target: T5, biotinylated 14-3-3 ω dimer

Binder | Kd (At14-3-3 λ^N233A) [µM] | Kd [1] [µM] | Kd [2] [µM] | Kd [3] [µM] | Kd [4] | koff [5] [s⁻¹]
RISN[pS]AP [pBZR1^169−175 peptide] | 5 | 0.81 | 0.88 | 0.57 | 0.38 µM and 0.4 µM | 0.87
RISN[pS]CPV[pT]PPVSSPT [pBZR1^169−184 peptide] | – | – | – | – | 3.1 µM and 3 µM | –
RGELF[pS]AP [pBKI1^265−272 peptide] | 3.7 | 5.4 | 6.4 | 14.4 | – | –
RKL[pT]FA [pBRI1^869−874 peptide] | 40 | – | – | – | 16.7 µM and 17 µM | –
